# Tests used:
# [1] = molecular target: T1, ECD of DAF-4 (Caenorhabditis elegans, UniProt P50488); assay: Type II receptor-based rapid solid phase assay; format: binding; details: for inhibition of 125I-labeled OP-1 binding to the ECD of DAF-4: excess unlabeled competitor, FIG. 20
# T1 construct: highly purified ECD of DAF-4 as type II receptor
# T1 sequence (P50488 48-253 limits assumed): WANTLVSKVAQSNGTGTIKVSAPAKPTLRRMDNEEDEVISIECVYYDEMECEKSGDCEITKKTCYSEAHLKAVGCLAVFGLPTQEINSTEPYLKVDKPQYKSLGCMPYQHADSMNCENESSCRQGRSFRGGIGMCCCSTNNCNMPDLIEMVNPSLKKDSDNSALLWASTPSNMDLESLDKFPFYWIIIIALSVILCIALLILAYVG
# Procedure: iii. Type H Receptor-based rapid solid phase assay: OP-1 binding activity, and that of various synthetic peptides, may be determined by a rapid solid-phase assay using 125I-labeled OP-1 as ligand and highly purified ECD of DAF-4 as type II receptor. In a typical assay, ˜1 μg of ECD of DAF-4 receptor (R) is dissolved in 20 μl of 50 mM PBSA, pH 7.4 and immobilized on PVDF membranes (Immobilon-P) by using a slot-blot apparatus (VacuSlot-VS). A similarly immobilized polyclonal anti-OP-1 antibody (diluted Ab) has served as positive control, while bovine serum albumin (globulin free) and unrelated receptor ECD have served as negative controls in this assay. The receptor-containing membranes are incubated in 50 mM HEPES buffer, pH 7.4 containing 3% bovine serum albumin (BSA) for 14 h, in cold (4° C.), to block excess protein binding sites on the membrane. The blocking buffer is then replaced with 50 mM HEPES, pH 7.4 containing 0.5% BSA, 10 mM MgCl2 and 1 mM CaCl2, and the receptor-containing membranes are further incubated with ^125I-labeled OP-1 (˜400,000 cpm/ml) in the presence or absence of excess unlabeled OP-1 or test peptide for 18 h, with slow shaking at room temperature. Finally, the membranes are washed four times with 50 mM HEPES buffer, pH 7.4 containing 5 mM MgCl2 and 1 mM CaCl2, air dried and ^125I kept for autoradiography overnight.
# Initial binding experiments were carried out to examine the role of the finger 2 region (Leu109-Arg129) of OP-1 in the interaction of OP-1 with the type II receptor. Incubation of DAF4 with radioiodinated OP-1 was done in the presence (a) and absence (b) of synthetic peptide (F2-3) corresponding to the indicated finger 2 region of OP-1. In parallel, immobilized receptor was incubated with radioiodinated OP-1 in the presence of unlabeled OP-1 which served as a positive control. […] These initial results thus identify that the finger 2 region (Leu109-Arg129) of OP-1 is likely a contact region in the interaction of OP-1 with the type II receptor.
# [2] = test system: ROS cell receptor; assay: Type II receptor-based ligand blot, ROS cell receptor; format: binding, rat; details: FIG. 21
# Procedure: (§1) iv. Type II receptor-based ligand-blot technique: A ligand blot method can be used to characterize OP-1 binding properties of highly purified DAF4 ECD and ROS cell receptor. Peptides are analyzed by this method to determine their ability to interact with type II receptor, based on their ability to inhibit ^125I-labeled OP-1 binding to the receptor. In a typical experiment, receptor-enriched ROS cell plasma membrane fraction or purified DAF-4 ECD is treated with SDS (final concentration 1.6%, w/v) in the presence of 17% glycerol on ice, as is known in the art, and subjected to SDS-PAGE under non-reducing conditions and without prior heating of the samples, according to the procedure of Laemmli. Receptor samples are electrophoressed at 35 mA and 4° C., in gradient (5-8% or 5-10%, w/v) acrylamide separating gels. Pre-stained markers of known MW, are used as standards. After SDS-PAGE, the resolved proteins from acrylamide gels are transblotted onto PVDF membranes (Immobilon-P transfer membranes) using an Pharmacia-LKB 2005 Transphor Unit, at constant current (0.2 A) and 4° C., for 16 h. Ligand blotting is carried out as follows. […]
# [3] = molecular target: T2, DAF-4 ECD (Caenorhabditis elegans, UniProt P50488); assay: Type II receptor-based ligand blot, DAF-4 ECD; format: binding; details: FIG. 22
# T2 construct: highly purified ECD of DAF-4 as type II receptor
# T2 sequence (P50488 48-253 limits assumed): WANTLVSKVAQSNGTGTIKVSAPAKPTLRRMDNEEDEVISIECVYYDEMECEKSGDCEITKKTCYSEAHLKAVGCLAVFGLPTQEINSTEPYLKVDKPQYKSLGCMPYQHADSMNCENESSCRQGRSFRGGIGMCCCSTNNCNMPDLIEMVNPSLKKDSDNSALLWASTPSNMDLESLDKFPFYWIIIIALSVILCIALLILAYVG
# Procedure: as §1
molecule,measurement,setting,value
"F2-3: SEQ ID No. 19; 16 residues, finger 2 tip 11-residue loop with 5-residue C-terminal extension (CYFDDSSNVICKKYRS; listed as Homo sapiens)",binding to ECD of DAF-4,[1]; FIG. 20 legend,binds to ECD of DAF-4
same,inhibition of 125I-labeled OP-1 binding to the ECD of DAF-4,[1],75%
"OP-1: osteogenic protein-1, a tissue morphogenic protein of the TGF-β superfamily; mature human OP-1 is SEQ ID No. 4 (protein, listed as Homo sapiens) CKKHELYVSFRDLGWQDWIIAPEGYAAYYCEGECAFPLNSYMNATNHAIVQTLVHFINPETVPKPCCAPTQLNAISVLYFDDSSNVILKKYRNMVVRACGCH",inhibition of 125I-labeled OP-1 binding to the ECD of DAF-4,[1],78%
same,binding of 125I-labeled OP-1 to ROS cell receptor,[2],specifically binds
same,binding of 125I-labeled OP-1 to DAF-4 ECD,[3],OP-1 binding to two closely migrated receptor components
